US5952463

What was measured:
[1] = molecular target: purified secretion-type Kex2 proteinase (sKEX2 product, Saccharomyces yeast) (Saccharomyces yeast) (UniProt P13134); parameters: unit not given beside the values
[2] = molecular target: Trypsin
[3] = molecular target: Thermolysin
[4] = molecular target: Subtilisin
[5] = molecular target: Chymotrypsin
[6] = molecular target: Trypsin; remark: listed apart in the source
[7] = molecular target: Thermolysin; remark: listed apart in the source
[8] = molecular target: Pepsin
[9] = molecular target: Subtilisin; remark: listed apart in the source
[10] = molecular target: Chymotrypsin; remark: listed apart in the source

B1: Kexstatin (proteinase inhibitor purified from the culture fluid of Streptomyces platensis Q268) (protein)
chain: GLYAPTELVLTVGQGESRATATVQRAVTLSCMPGARGSHPNPLGACTQLRAVAGDFNAITAATSDRLCTKEWNPLVVTADGVWQGKRVSYSYTFANRCEMNIDSDTVFNF
B1 was tested. Which IC50 (amount of Kexstatin which inhibits the activity of 1 µg of Kex2 proteinase by 50%) (µg (per 1 µg of Kex2 proteinase)) [1] did it give?
The IC50 (amount of Kexstatin which inhibits the activity of 1 µg of Kex2 proteinase by 50%) (µg (per 1 µg of Kex2 proteinase)) was 1.4.

What about the Inhibition Ratio (%), casein Folin method [2] of the same binder?
The Inhibition Ratio (%), casein Folin method was 2.4%.

What about the Inhibition Ratio (%), casein Folin method [3] of the same binder?
The Inhibition Ratio (%), casein Folin method was -5.5%.

What about the Inhibition Ratio (%), casein Folin method [4] of the same binder?
Its Inhibition Ratio (%), casein Folin method is 87%.

And the Inhibition Ratio (%), casein Folin method [5]?
The Inhibition Ratio (%), casein Folin method was -19%.

And the Inhibition Ratio (%), synthetic fluorescent substrate Bz-Arg-MCA, enzyme at 1/10 molar ratio to 0.5 µg of Kexstatin [6]?
Its Inhibition Ratio (%), synthetic fluorescent substrate Bz-Arg-MCA, enzyme at 1/10 molar ratio to 0.5 µg of Kexstatin is 49.2%.

What about the Inhibition Ratio (%), casein Folin method, enzyme at 1/10 molar ratio to 0.5 µg of Kexstatin [7] of the same binder?
The Inhibition Ratio (%), casein Folin method, enzyme at 1/10 molar ratio to 0.5 µg of Kexstatin was 8%.

What about the Inhibition Ratio (%), casein Folin method, enzyme at 1/10 molar ratio to 0.5 µg of Kexstatin [8] of the same binder?
The Inhibition Ratio (%), casein Folin method, enzyme at 1/10 molar ratio to 0.5 µg of Kexstatin was 0%.

What about the Inhibition Ratio (%), synthetic fluorescent substrate Suc-Ala-Ala-Pro-Phe-MCA, enzyme at 1/10 molar ratio to 0.5 µg of Kexstatin [9] of the same binder?
The Inhibition Ratio (%), synthetic fluorescent substrate Suc-Ala-Ala-Pro-Phe-MCA, enzyme at 1/10 molar ratio to 0.5 µg of Kexstatin was 99.5%.

And the Inhibition Ratio (%), synthetic fluorescent substrate Suc-Ala-Ala-Pro-Phe-MCA, enzyme at 1/10 molar ratio to 0.5 µg of Kexstatin [10]?
The Inhibition Ratio (%), synthetic fluorescent substrate Suc-Ala-Ala-Pro-Phe-MCA, enzyme at 1/10 molar ratio to 0.5 µg of Kexstatin was 0%.
